From PMC10104473

Biological target: TEA domain transcription factor 1 (TEAD1) on the HuProt Human Proteome Microarray v3.1 (human) (UniProt P28347)
Assay: peptide or protein array; purified FLAG-Lamin A/C (WT or Q353R) applied to a HuProt Human Proteome Microarray v3.1; two samples each, averages of the pairs compared

UniProt P28347, sequence (P28347 whole entry, the tested form may be a part): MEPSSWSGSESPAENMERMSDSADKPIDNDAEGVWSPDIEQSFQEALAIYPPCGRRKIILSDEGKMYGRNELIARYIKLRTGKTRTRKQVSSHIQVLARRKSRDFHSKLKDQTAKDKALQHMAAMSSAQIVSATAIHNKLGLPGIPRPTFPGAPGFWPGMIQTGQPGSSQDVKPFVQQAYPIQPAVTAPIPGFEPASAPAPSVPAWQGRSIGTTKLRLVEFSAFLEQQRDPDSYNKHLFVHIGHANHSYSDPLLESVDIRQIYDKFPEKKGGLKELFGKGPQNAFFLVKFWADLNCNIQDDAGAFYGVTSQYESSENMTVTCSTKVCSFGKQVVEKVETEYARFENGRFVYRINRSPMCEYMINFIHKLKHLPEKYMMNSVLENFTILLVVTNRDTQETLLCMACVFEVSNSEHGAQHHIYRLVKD

- fold affinity against WT Lamin A/C: 8 fold
Substance: FLAG-tagged Q353R Lamin A/C (from UniProt P02545 1-646) (natural protein)
